In the assay the target is Firefly luciferase fragment FFL (265-550) (Photinus pyralis) [luciferase: P08659]. The experiment in a line: cell-based or functional assay.

Bounds are passed on as bounds.

Chain of Firefly luciferase fragment FFL (265-550) (Photinus pyralis) [luciferase: P08659] (P08659 265-550): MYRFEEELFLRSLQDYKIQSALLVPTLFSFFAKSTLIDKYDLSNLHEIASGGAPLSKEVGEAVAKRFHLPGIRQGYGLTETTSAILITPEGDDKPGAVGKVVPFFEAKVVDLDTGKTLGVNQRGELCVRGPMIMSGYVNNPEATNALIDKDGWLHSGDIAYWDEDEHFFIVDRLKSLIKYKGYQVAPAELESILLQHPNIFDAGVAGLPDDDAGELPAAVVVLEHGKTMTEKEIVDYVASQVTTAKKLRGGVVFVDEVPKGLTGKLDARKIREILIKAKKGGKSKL
Chain of Firefly luciferase fragment FFL (1-478) (P08659 1-478): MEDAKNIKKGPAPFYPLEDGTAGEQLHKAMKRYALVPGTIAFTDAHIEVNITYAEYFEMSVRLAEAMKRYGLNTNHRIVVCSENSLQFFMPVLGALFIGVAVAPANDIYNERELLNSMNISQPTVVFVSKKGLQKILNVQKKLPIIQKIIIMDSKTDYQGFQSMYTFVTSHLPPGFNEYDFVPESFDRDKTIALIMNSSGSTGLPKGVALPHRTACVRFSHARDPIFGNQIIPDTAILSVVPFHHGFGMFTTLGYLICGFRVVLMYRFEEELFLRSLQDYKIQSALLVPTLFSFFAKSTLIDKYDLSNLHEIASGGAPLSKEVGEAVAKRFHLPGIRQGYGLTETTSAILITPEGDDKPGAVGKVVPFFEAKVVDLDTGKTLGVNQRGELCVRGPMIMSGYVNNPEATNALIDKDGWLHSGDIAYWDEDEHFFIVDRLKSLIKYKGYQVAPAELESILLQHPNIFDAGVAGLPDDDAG

“Firefly luciferase fragment FFL (1-478) (from UniProt P08659 1-478)”: the luciferase activity after recombination of the fragments is less than 4%.

The record behind these values is patent US20140235490A1.
